Data taken from publication PMC2132522.

Assays:
[1] = molecular target: F-actin (rabbit muscle) (rabbit) (UniProt P68135); test: co-sedimentation
[2] = molecular target: G-actin (rabbit muscle) (rabbit) (UniProt P68135)
[3] = molecular target: NBD-labeled G-actin (rabbit muscle) (rabbit) (UniProt P68135); test: other fluorescence titration
[4] = molecular target: pyrenyl-labeled F-actin (rabbit muscle) (rabbit) (UniProt P68135); test: other fluorescence titration

Recombinant ADF1 from Arabidopsis thaliana (natural protein)
stoichiometry N [1]: 1
association to barbed ends in low ionic strength F buffer (1 mM MgCl2) [2]: 20 fold
Kd [3]: 25 nM
stoichiometry N [3]: 1
Ka [4]: > 1e+06 M⁻¹
stoichiometry N [4]: 1
